For the assay, the target named is mCherry-PEX5(TPR) (human) (UniProt P50542). The assay is described as follows: FRET or BRET; flowFRET competition in living pex5-/- MEF; mCherry-PEX5(TPR) as acceptor, EGFP-PTS1(SCP2) as donor, Cerulean-tagged protein as competitor; apparent KD1^app and KD2^app by fitting, plotted as Log10(KD2^app)/Log10(KD1^app).

Cerulean-PTS1(SCP2) (peptide): the Log10(KD2^app)/Log10(KD1^app) against the donor EGFP-PTS1(SCP2) turned out to be 1.

Values taken from paper PMC9669585.
